According to the supplement of paper PMC10567573:

B1: PLAGL1 (parent)
chain: TKEKKHQCDHCERCFYTRKDVRRH

Variants of: B1
Test: protein stability index of a GFP-peptide fusion (GPS, HEK-293T) (PSI 1-6); higher = more stable
Details: c terminus: a fixed tail appended
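Note: lentivirally expressed fusions sorted by FACS into six bins by GFP to DsRed ratio, PSI derived from sequencing read proportions per bin multiplied by bin number.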

Protein stability index: each site, then its substitutions
C14: L 3.06 | G 4.02 | W 3.65 | K 3.78 | M 3.52 | D 3.54 | N 3.25 | A 3.11 | V 3.42 | R 3.16 | Y 3.27 | S 3.28 | P 3.29 | H 3.12 | E 3.69 | I 2.65 | Q 3.41 | F 3.18 | T 3.6
H6: D 2.91 | V 2.67 | E 3.55 | Q 3.08 | Y 3.43 | T 2.86 | P 2.94 | K 3.19 | I 2.94 | A 2.39 | G 2.88 | N 3.33 | W 2.51 | S 2.88 | R 2.95 | F 3.01 | L 2.5 | M 2.7 | C 3.7
T17: K 3.4 | C 4.01 | H 3.29 | W 2.74 | R 3.63 | F 4.01 | S 3.12 | N 3.7 | A 3.6 | I 3.01 | P 3.1 | L 3.77 | M 3.26 | Y 3.09 | Q 3.44 | D 3.61 | G 3.05 | E 3.81 | V 3.22
Y16: I 3.18 | K 3.14 | P 3.13 | E 4.19 | S 3.63 | D 4.12 | C 3.74 | L 3.4 | M 3.75 | Q 3.88 | R 4 | V 3.75 | F 3.58 | W 3.26 | T 3.58 | A 4.02 | H 3.46 | G 3.79 | N 4.2
Q7: P 2.82 | W 2.77 | I 3.32 | H 3.73 | N 3.21 | V 3.23 | M 2.71 | D 3.43 | E 3.31 | T 2.74 | S 3.25 | R 3.33 | K 3.8 | C 3.36 | F 2.91 | A 3.41 | L 2.54 | Y 2.81 | G 2.89
F15: L 3.9 | K 3.94 | M 4.05 | N 3.48 | Y 3.48 | R 3.77 | D 2.98 | C 2.83 | Q 3.79 | V 3.47 | T 4.24 | I 3.62 | A 3.79 | P 3.06 | W 3.41 | H 3.46 | G 2.83 | S 3.05 | E 3.61
R18: I 3.06 | L 3.76 | G 2.87 | C 3.06 | E 3.61 | K 3.09 | F 2.76 | M 2.95 | A 3.54 | D 3.82 | H 3.29
K2: I 3.08 | G 3.15 | A 3.58 | N 3.21 | S 3.39 | E 3.65 | V 3.3 | Q 3.67 | F 3.02 | M 3.71 | T 3.67 | L 2.75 | R 3.77 | H 3.55 | D 4.04 | Y 3.21 | W 3.16 | P 3.1 | C 3.25
K4: G 3.49 | D 3.84 | C 3.87 | W 2.95 | Y 3.03 | Q 3.4 | N 3.08 | I 3.57 | F 3.21 | M 3.27 | R 3.29 | V 3.24 | H 3.42 | T 3.27 | E 4.01 | P 3.33 | L 2.9 | S 2.93 | A 3.32
T1: Y 3.31 | K 3.59 | G 3.68 | W 3.54 | L 3.34 | P 3.48 | S 3.46 | A 3.1 | D 3.04 | C 3.75 | Q 3.52 | F 3.1 | I 3.57 | H 3.12 | V 3.5 | N 3.38 | E 3.82 | M 3.39 | R 3.37
E3: A 3.31 | C 4.51 | H 3.55 | Y 3.12 | R 3.59 | P 3.63 | S 3.48 | K 3.5 | M 3.53 | W 2.73 | V 3.28 | G 3.45 | Q 3.35 | T 3.32 | D 3.49 | I 3.01 | F 3.29 | L 3.14 | N 3.59
K5: W 3.06 | P 3.67 | N 3.03 | I 3.13 | D 3.53 | T 3.22 | H 3.82 | Y 3.19 | Q 3.67 | S 3.46 | V 3.63 | L 3.67 | R 3.75 | F 3.22 | E 3.67 | C 2.59 | M 3.81 | G 3.04 | A 3.78
C11: N 3.39 | F 3.27 | R 4.11 | W 3.46 | H 3.31 | D 3.96 | G 3.61 | P 3.98 | M 3.57 | T 3.24 | S 3.42 | V 3.73 | I 3.65 | Q 3.91 | E 4.31 | L 3.71 | Y 3.22 | K 3.86 | A 3.62
C8: Q 3.53 | S 3.48 | K 3.43 | D 3.61 | Y 2.78 | E 3.84 | N 3.29 | V 3.12 | L 3.56 | F 2.6 | A 3.53 | M 2.98 | T 3.24 | I 3.1 | W 2.75 | H 3.25 | G 3.02 | R 3.42 | P 3.17
H10: W 2.67 | T 3.37 | Y 2.46 | F 2.36 | C 3.33 | R 3.41 | G 4.13 | M 3.33 | N 3.6 | K 3.91 | E 3.37 | Q 3.47 | A 3.33 | L 2.55 | I 2.71 | S 3.68 | P 3.4 | V 3.37 | D 3.79
E12: W 2.69 | V 3.24 | Q 3.15 | D 3.6 | F 3.12 | L 3 | R 3.15 | H 3.34 | A 3.05 | Y 3.3 | T 3.15 | S 3.03 | G 4.02 | N 3.19 | K 3.09 | M 3.15 | C 3.27 | I 2.89 | P 4.17
R13: M 3.26 | S 3.35 | A 3.77 | T 3.06 | W 2.61 | G 3.25 | N 3.81 | I 2.62 | E 3.66 | F 3 | V 3.41 | C 3.39 | K 3.54 | P 2.75 | H 3.87 | D 3.79 | L 3.27 | Y 2.63 | Q 4.24
D9: L 2.98 | K 3.24 | C 3.14 | N 4.02 | S 3.14 | A 2.67 | T 2.92 | H 3.02 | I 2.53 | M 3.5 | P 3.11 | R 2.92 | G 3.66 | E 3.32 | Q 3 | F 2.31 | Y 2.46 | W 2.84 | V 2.47
